Numbering of substitutions follows the chain as printed. Read-outs that look alike come from different tables or passages of the source. One block for each molecule: values may come before it.
Experiments:
[1] = target: corresponding proteinases (proteinase of the comparative inhibition assay, not named); assay: cell-based or functional assay
[2] = target: T1, C. elegans cysteine proteinase gcp-1, expressed and purified from E. coli (Caenorhabditis elegans, UniProt P25807 85-329, limits assumed); assay: proteinase inhibition assay (Barrett), Ki calculated as by Abe et al.
T1 construct: also called gcp-I; glp-1
T1 sequence (looked up): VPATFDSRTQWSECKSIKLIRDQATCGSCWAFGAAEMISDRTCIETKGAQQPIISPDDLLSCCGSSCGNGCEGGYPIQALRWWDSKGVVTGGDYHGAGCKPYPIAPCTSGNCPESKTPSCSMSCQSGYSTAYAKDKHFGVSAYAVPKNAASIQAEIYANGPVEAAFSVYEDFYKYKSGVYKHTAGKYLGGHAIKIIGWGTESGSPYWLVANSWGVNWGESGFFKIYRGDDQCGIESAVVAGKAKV
Description: (§1) To determine the Ki of cystatins biochemical assays were performed according to the procedure of Barrett (7) and Ki values were calculated as described by Abe et al. (3)

papain [3] = target: T2, papain (UniProt P00784 134-345); assay: as above
T2 sequence (looked up): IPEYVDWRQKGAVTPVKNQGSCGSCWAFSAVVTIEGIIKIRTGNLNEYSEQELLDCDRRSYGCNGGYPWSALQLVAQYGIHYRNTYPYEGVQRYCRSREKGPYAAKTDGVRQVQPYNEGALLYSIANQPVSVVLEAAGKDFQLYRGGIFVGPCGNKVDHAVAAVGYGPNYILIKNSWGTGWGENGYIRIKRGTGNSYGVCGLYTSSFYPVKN
Description: as §1

[4] = target: corresponding proteinases (proteinase of the comparative inhibition assay, not named); assay: cell-based or functional assay; remark: listed apart in the source
[5] = target: T1, C. elegans cysteine proteinase gcp-1, …; assay: proteinase inhibition assay, Ki
papain [6] = target: T2, papain; assay: proteinase inhibition assay, Ki

- Ki [2]: 8 nM
- Ki (papain [3]): 7 nM
- relative percentage inhibition [4]: 60%
B1: Oryzacystatin I (Oc-I), wild type, expressed from pQE30 in E. coli (other, Oryza sativa L. japonica)
chain: HHHHHHMSSDGGPVLGGVEPVGNENDLHLVDLARFAVTEHNKKANSLLEFEKLVSVKQQVVAGTLYYFTIEVKEGDAKKLYEAKVWEKPWMDFKELQEFKPVDASANA
notes: the present UniProt entry may carry a longer N-terminus, so the numbering must be checked; also called Oryzacystatin Oc-I; native Oc-I

- fold lowering of Ki against wild type Oc-I [5]: ~13 fold
- fold lowering of Ki against wild type Oc-I (papain [6]): ~13 fold
- Ki [2]: 0.6 nM
- Ki (papain [3]): 0.5 nM
- relative percentage inhibition [1]: 88%
B2: Oc-IdeltaD86 (Oryzacystatin I with aspartic acid 86 deleted) (other)
chain: HHHHHHMSSDGGPVLGGVEPVGNENDLHLVDLARFAVTEHNKKANSLLEFEKLVSVKQQVVAGTLYYFTIEVKEGDAKKLYEAKVWEKPWMFKELQEFKPVDASANA

More lines, now with the values behind:

Molecule: Chicken egg white cystatin (CEWC) (from UniProt P01038 24-139)
- relative percentage inhibition [1]: 100%

Molecule: OC-NTERM1-15QVLSG40-63CTERM97-116 (hybrid of Oc-I with three CEWC regions) (from UniProt P09229 56-77; P09229 102-123)
- relative percentage inhibition [1]: 90%

B3: Oc-I with deletion of residue M85 (other)
chain: B2 chain with M91D
- Ki [2]: 7.1 nM
